In test [1] the target is BG505 DS-SOSIP.664 stabilized soluble HIV-1 Env trimer (HIV-1 (clade A, strain BG505)) (UniProt Q2N0S6). The experiment in a line: negative stain electron microscopy.
In test [2] the target is CH505 Env, on pseudovirus (HIV-1 (clade C, isolate CH505)).
Test [3] concerns the target BG505 Env (unmutated), on pseudovirus (HIV-1 (clade A, strain BG505)) (UniProt Q2N0S6).

Bounds are passed on as bounds.

As for “CH103 KN Fab (partially UCA-reverted CH103 mutant, E75K and D76N)”, the stoichiometry N (Fab per trimer) in test [1] stood at 1.
In test [1], mature CH103 Fab displayed a stoichiometry N (Fabs per trimer) of 2.

B1: CH103 KN antibody (IgG; E75K and D76N in the heavy chain) (antibody, V domains shown)
V domain 1: QVQLQESGPGVVKSSETLSLTCTVSGGSMGGTYWSWLRLSPGKGLEWIGYIFHTGETNYSPSLKGRVSISVDTSKNQFSLRLRSVTAADTAVYFCASLPRGQLVNAYFRNWGRGSLVSVTA
V domain 2: SYELTQPPSVSVSPGQTATITCSGASTNVCWYQVKPGQSPEVVIFENYKRPSGIPDRFSGSKSGSTATLTIRGTQAIDEADYYCQVWDSFSTFVFGSGTQVTVL
Take B1: the neutralisation of CH505 pseudovirus (TZM-bl), decrease against mature CH103 in test [2] was > 3 fold. For the same molecule, the neutralisation of BG505 pseudovirus (TZM-bl), decrease against mature CH103 in test [3] is > 3 fold.

Values taken from article PMC12335366.
